The text below walks through data of the RNAGym collection of RNA variant scans (doi:10.7554/elife.80360).

Sequences and labels used below:
B1: HDV Ribozyme (parent)
chain: GGCCGGCAUGGUCCCAGCCUCCUCGCUGGCGCCGGCUGGGCAACAUUCCGAGGGGACCGUCCCCUCGGUAAUGGCGAAUGGGACCCA

Variants of B1 are the subject of this series. The series is described as follows: self-cleavage, relative activity (ratio to wild type); higher = more cleavage; co-transcriptional.
C24U C62A: the self-cleavage amounted to 0.471. In the case of G53U G74C, the self-cleavage came out at 0.202. As to A8C C21A, the self-cleavage came to 0.0449. G11C C41U: the self-cleavage was 0.0831. As for C15G G53C, the figure is 0.598; as for A8U C15A, 0.369; as for A78G A87C, 0.452. On to G38C G67C, for which the self-cleavage turned out to be 0.157. As for C26U C36A, the figure is 0.

Regarding G5A U12C, the self-cleavage came out at 0.0615. With G55C C61U, the self-cleavage amounted to 1.

As for U20C G59U, the self-cleavage is 0.128. Take G11U G59C: the self-cleavage is 0.297.

G11U G59A: the self-cleavage is 0.499. C36A C41G: the self-cleavage worked out at 0.18. With C24U A43C, the self-cleavage turned out to be 0.0739. As for C24A U79C, the self-cleavage is 0.12.

For C15U G50C, the self-cleavage is 0.831.

In the case of G2U C66U, the self-cleavage was found to be 0.0895. As to C24U C86U, the self-cleavage amounted to 0.69. On to U12G C24U, for which the self-cleavage was 0.511. As to G17C G68C, the self-cleavage was found to be 0.227.

Take G52A G73C: the self-cleavage was determined as 0.337. Take U12C G39A: the self-cleavage was determined as 0.106.

As to C26A G76A, the self-cleavage amounted to 1.03.

Take A71U C86A: the self-cleavage was found to be 0.729. For the variant C63A G80A, the self-cleavage came to 0.388.

For the variant U9A G59A, the self-cleavage is 1.19. As for A42C G81A, the figure is 0.104; as for G31C C64G, 0.292. As for G1U G28A, the figure is 0.292; as for G31A U72C, 0.256. Consider C7U A70U, for which the self-cleavage was determined as 0.748. Regarding C30G A56U, the self-cleavage is 0.116.

As for G39C G50C, the self-cleavage stood at 0.104. Turning to C41G G54A, the self-cleavage stood at 0.831.

Turning to C30U U60C, the self-cleavage was found to be 0.831. On to C18A C44G, for which the self-cleavage is 0.193. As for G54A C86A, the self-cleavage worked out at 0.988. With G10C U46A, the self-cleavage is 0.525. In the case of C26A U60C, the self-cleavage was 0.81. For the variant C63U C66U, the self-cleavage turned out to be 0.816. G39A G68A: the self-cleavage stood at 0.415. As for G11C U23A, the figure is 0.465; as for C14A C24U, 0.0361; as for G5C G28A, 0.104. For the variant C41G C48G, the self-cleavage amounted to 0.682. For G2A G55A, the self-cleavage was found to be 0.191. Take C13A G82A: the self-cleavage turned out to be 0.264. Consider C41G G53C, for which the self-cleavage was determined as 0.658. C18U G38C: the self-cleavage came to 0.0297. On to G28C C75U, for which the self-cleavage is 0.0361. For A8C C15G, the self-cleavage came to 0.378. For the variant C30A G31U, the self-cleavage is 0.0733. As for C36A A83U, the figure is 0.0219; as for G50U G74U, 0.427; as for G5A C61G, 0.166. As to G5C G34U, the self-cleavage worked out at 0.0426. Take C7U C33A: the self-cleavage came out at 0.0831. As to A77U G82A, the self-cleavage was 0.271.

As to A16U A78U, the self-cleavage stood at 0.332.

As for G38U U72C, the self-cleavage is 0.0978. For C36G C86G, the self-cleavage stood at 0.119. On to C14U C48G, for which the self-cleavage is 1.08. As to G38U U60G, the self-cleavage was found to be 0.13. G25U A43U: the self-cleavage is 0.0707. For U47G G50A, the self-cleavage stood at 0.957. Take A45C A71G: the self-cleavage worked out at 1.11. For C33U U60G, the self-cleavage was determined as 0.935. C19G G50U: the self-cleavage was 0.108.

Take C3G C32A: the self-cleavage turned out to be 0.

In the case of C15G C26U, the self-cleavage was 0.623. Regarding U9A C62G, the self-cleavage amounted to 0.939. As for G5A A42G, the figure is 0. As for G40C G53C, the figure is 0.17. As for G34C G52C, the figure is 0.267; as for G5U A78G, 0.332; as for C30U U37G, 0.

As to A51G G74U, the self-cleavage amounted to 0.434. For G31A U65A, the self-cleavage was found to be 0.366. As for G28U C57A, the self-cleavage came to 0.102. A8U G38U: the self-cleavage came out at 0.326. As for C19A A42U, the self-cleavage was 0.0216. Take G80A A87U: the self-cleavage worked out at 0.441. For the variant C33G A83U, the self-cleavage was found to be 0.162. Turning to G38C G68A, the self-cleavage is 0.172. Consider G2C C62U, for which the self-cleavage came out at 0.0841. On to C75G C86A, for which the self-cleavage worked out at 0.147. In the case of A78C C84U, the self-cleavage was determined as 0.196. With A78C C84G, the self-cleavage was determined as 0.11.

On to G10C G74U, for which the self-cleavage was 0.166.

With G2C G5U, the self-cleavage was 0.145.

With C30A C32A, the self-cleavage was determined as 0.0627. For G1C A45U, the self-cleavage is 0.

As for C57A A87G, the self-cleavage is 1.07. For the variant C30A C62U, the self-cleavage turned out to be 0.423. For the variant G40U C57G, the self-cleavage worked out at 0.712. Regarding A43G A77C, the self-cleavage was 0.0723. In the case of C14G C85G, the self-cleavage was 0.415. With C14U A56C, the self-cleavage came out at 1.44.

Consider A8C C66G, for which the self-cleavage was found to be 0.997. Take G6A C14G: the self-cleavage was determined as 0.287. As for G39A U60A, the self-cleavage came out at 0.268.

As for C41U A77G, the self-cleavage turned out to be 0.95. Consider C22U G54A, for which the self-cleavage worked out at 0.709. In the case of G25A C48A, the self-cleavage was found to be 0.491. In the case of U12G A83C, the self-cleavage came to 1.17. For the variant C7U U72G, the self-cleavage was found to be 0.332. As for C48U C75G, the figure is 0.0852; as for G39C G74U, 0.251. With C3A C84A, the self-cleavage is 0.391. With G11U C41G, the self-cleavage was 0.204. As to G28U C62A, the self-cleavage is 0.154. Turning to C13A C36A, the self-cleavage came to 0.0421.

Regarding A43C C66U, the self-cleavage was 0.306. As for G35A G52U, the figure is 0.513. On to C15G U65C, for which the self-cleavage worked out at 0.332.

As for G1C G67C, the self-cleavage came out at 0.111. As for A45C C49U, the figure is 0.831.

With G35A G55A, the self-cleavage was 0.736. Take U27G G73A: the self-cleavage was determined as 0.396. Regarding C7U C22G, the self-cleavage came to 0.0678.

As for A56C G80A, the self-cleavage was 0.292. Turning to C41U G82C, the self-cleavage came out at 0.136. G6U U60A: the self-cleavage stood at 0.571.

As for G54U G81A, the self-cleavage stood at 0.306. Turning to G10A A70U, the self-cleavage stood at 0.533.

On to U65G G76C, for which the self-cleavage was 1.15. Regarding G10U G25U, the self-cleavage worked out at 0.125. For the variant G2U C64G, the self-cleavage came to 0.0791. For the variant U37G A43U, the self-cleavage was determined as 0.208. As for G6A C18U, the figure is 0.148; as for C19U C64G, 0.0923. Turning to U79G C86U, the self-cleavage amounted to 0.739. As for G50U G52U, the figure is 0.68; as for G29C A70G, 0.101; as for C18A G28U, 0. Take A16C G80A: the self-cleavage was 0.406. On to C7G C86G, for which the self-cleavage turned out to be 0.378. As for G35U G80A, the figure is 0.101. For the variant C61G U65G, the self-cleavage came to 0.72. For G2C U69C, the self-cleavage was determined as 0.175.

In the case of G6A G80U, the self-cleavage was 0.0813. As for C22G A45G, the figure is 0; as for C7U G35A, 0.109. For C33A A83G, the self-cleavage was 0.144.

In the case of G54U A77C, the self-cleavage turned out to be 0.415. Consider C3G A42G, for which the self-cleavage is 0.138. As for A70C G74C, the figure is 0.262. Consider C66U G76C, for which the self-cleavage is 0.965. As for U37A U79C, the self-cleavage was determined as 0.0623.

C18G C58A: the self-cleavage came to 0.0573.

U20A C62G: the self-cleavage was 0.0639. Regarding U72A G74C, the self-cleavage came to 0.339. For U12C C15U, the self-cleavage came to 0.147.

In the case of C49G G52U, the self-cleavage was 0.48. Consider U37C G53U, for which the self-cleavage came out at 1.13.

For G55C C64G, the self-cleavage was determined as 0.953. Regarding G1C C13A, the self-cleavage came out at 0.0386. On to U9A G82A, for which the self-cleavage worked out at 0.425. In the case of C7U C15U, the self-cleavage worked out at 0.674. As for A43C A83G, the figure is 0.0923. In the case of G35U C36A, the self-cleavage amounted to 0.0831.

In the case of C21G C66G, the self-cleavage was 0. Turning to G1U G29C, the self-cleavage was determined as 0.292. On to G1A G34A, for which the self-cleavage worked out at 0.136.

For the variant C4G C41U, the self-cleavage amounted to 0.289.
